Paper PMC5548930

T1: Gαi3 protein, P08754
T1 chain: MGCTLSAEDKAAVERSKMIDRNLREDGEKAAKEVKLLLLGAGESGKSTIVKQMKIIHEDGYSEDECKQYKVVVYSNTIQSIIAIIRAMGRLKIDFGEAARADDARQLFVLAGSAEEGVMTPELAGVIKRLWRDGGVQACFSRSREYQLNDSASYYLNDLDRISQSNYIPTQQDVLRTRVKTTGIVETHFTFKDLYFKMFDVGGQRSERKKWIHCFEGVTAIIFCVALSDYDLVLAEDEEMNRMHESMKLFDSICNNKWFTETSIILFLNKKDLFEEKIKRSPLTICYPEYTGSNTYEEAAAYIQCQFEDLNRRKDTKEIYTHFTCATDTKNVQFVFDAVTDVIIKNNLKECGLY

T2: C-terminally biotinylated endothelin-1
T2 chain: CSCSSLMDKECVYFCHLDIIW


Columns and labels:
[1] = target: Endothelin-1 (Homo sapiens) (UniProt P05305); details: cited from earlier work
[2] = target: T1, Gαi3 protein, P08754; assay: ELISA (immobilized Gαi3, bound P9-ETA detected with anti-P9 antibody); details: chain shown with the change; 1 μM mutant; parent: est. 100; read off a plot
[3] = target: T2, C-terminally biotinylated endothelin-1; assay: ELISA (immobilized purified P9-ETA proteins, bET-1 detected with SA-HRP); details: chain shown with the change; 5 μM bET-1; proteins reconstituted with APG; parent: est. 100; read off a plot

Row | Molecule | Kd [1] | percent of parent [2] | percent of parent [3]
1 | Endothelin receptor type A (P9-ETA fusion) (from UniProt P25101) | 60 nM | – | –
2 | wild type P9-ETA (human endothelin receptor type A with N-terminal P9 fusion), P25101 G261W (protein) DNPERYSTNLSNHVDDFTTFRGTELSFLVTTHQPTNLVLPSNGSMHNYCPQQTKITSAFKYINTVISCTIFIVGMVGNATLLRIIYQNKCMRNGPNALIASLALGDLIYVVIDLPINVFKLLAGRWPFDHNDFGVFLCKLFPFLQKSSVGITVLNLCALSVDRYRAVASWSRVQGIGIPLVTAIEIVSIWILSFILAIPEAIGFVMVPFEYRGEQHKTCMLNATSKFMEFYQDVKDWWLFWFYFCMPLVCTAIFYTLMTCEMLNRRNGSLRIALSEHLKQRREVAKTVFCLVVIFALCWFPLHLSRILKKTVYNEMDKNRCELLSFLLLMDYIGINLATMNSCINPIALYFVSKKFKNCFQSCLCCCCYQSKSLMTSVPMNGTSIQWKNHDQNNHNTDRSSHKDSMN | – | 110 % of w.t | 31 % of w.t
3 | wild type P9-ETA (human endothelin receptor type A with N-terminal P9 fusion), P25101 S213L (protein) DNPERYSTNLSNHVDDFTTFRGTELSFLVTTHQPTNLVLPSNGSMHNYCPQQTKITSAFKYINTVISCTIFIVGMVGNATLLRIIYQNKCMRNGPNALIASLALGDLIYVVIDLPINVFKLLAGRWPFDHNDFGVFLCKLFPFLQKSSVGITVLNLCALSVDRYRAVASWSRVQGIGIPLVTAIEIVSIWILLFILAIPEAIGFVMVPFEYRGEQHKTCMLNATSKFMEFYQDVKDWWLFGFYFCMPLVCTAIFYTLMTCEMLNRRNGSLRIALSEHLKQRREVAKTVFCLVVIFALCWFPLHLSRILKKTVYNEMDKNRCELLSFLLLMDYIGINLATMNSCINPIALYFVSKKFKNCFQSCLCCCCYQSKSLMTSVPMNGTSIQWKNHDQNNHNTDRSSHKDSMN | – | 160 % of w.t | 130 % of w.t
4 | wild type P9-ETA (human endothelin receptor type A with N-terminal P9 fusion), P25101 M65K (protein) DNPERYSTNLSNHVDDFTTFRGTELSFLVTTHQPTNLVLPSNGSKHNYCPQQTKITSAFKYINTVISCTIFIVGMVGNATLLRIIYQNKCMRNGPNALIASLALGDLIYVVIDLPINVFKLLAGRWPFDHNDFGVFLCKLFPFLQKSSVGITVLNLCALSVDRYRAVASWSRVQGIGIPLVTAIEIVSIWILSFILAIPEAIGFVMVPFEYRGEQHKTCMLNATSKFMEFYQDVKDWWLFGFYFCMPLVCTAIFYTLMTCEMLNRRNGSLRIALSEHLKQRREVAKTVFCLVVIFALCWFPLHLSRILKKTVYNEMDKNRCELLSFLLLMDYIGINLATMNSCINPIALYFVSKKFKNCFQSCLCCCCYQSKSLMTSVPMNGTSIQWKNHDQNNHNTDRSSHKDSMN | – | 120 % of w.t | 3 % of w.t
5 | wild type P9-ETA (human endothelin receptor type A with N-terminal P9 fusion), P25101 D35N (protein) DNPERYSTNLSNHVNDFTTFRGTELSFLVTTHQPTNLVLPSNGSMHNYCPQQTKITSAFKYINTVISCTIFIVGMVGNATLLRIIYQNKCMRNGPNALIASLALGDLIYVVIDLPINVFKLLAGRWPFDHNDFGVFLCKLFPFLQKSSVGITVLNLCALSVDRYRAVASWSRVQGIGIPLVTAIEIVSIWILSFILAIPEAIGFVMVPFEYRGEQHKTCMLNATSKFMEFYQDVKDWWLFGFYFCMPLVCTAIFYTLMTCEMLNRRNGSLRIALSEHLKQRREVAKTVFCLVVIFALCWFPLHLSRILKKTVYNEMDKNRCELLSFLLLMDYIGINLATMNSCINPIALYFVSKKFKNCFQSCLCCCCYQSKSLMTSVPMNGTSIQWKNHDQNNHNTDRSSHKDSMN | – | 92 % of w.t | 29 % of w.t
6 | wild type P9-ETA (human endothelin receptor type A with N-terminal P9 fusion), P25101 F161L (protein) DNPERYSTNLSNHVDDFTTFRGTELSFLVTTHQPTNLVLPSNGSMHNYCPQQTKITSAFKYINTVISCTIFIVGMVGNATLLRIIYQNKCMRNGPNALIASLALGDLIYVVIDLPINVFKLLAGRWPFDHNDFGVFLCKLLPFLQKSSVGITVLNLCALSVDRYRAVASWSRVQGIGIPLVTAIEIVSIWILSFILAIPEAIGFVMVPFEYRGEQHKTCMLNATSKFMEFYQDVKDWWLFGFYFCMPLVCTAIFYTLMTCEMLNRRNGSLRIALSEHLKQRREVAKTVFCLVVIFALCWFPLHLSRILKKTVYNEMDKNRCELLSFLLLMDYIGINLATMNSCINPIALYFVSKKFKNCFQSCLCCCCYQSKSLMTSVPMNGTSIQWKNHDQNNHNTDRSSHKDSMN | – | 120 % of w.t | 50 % of w.t
7 | wild type P9-ETA (human endothelin receptor type A with N-terminal P9 fusion), P25101 C69S (protein) DNPERYSTNLSNHVDDFTTFRGTELSFLVTTHQPTNLVLPSNGSMHNYSPQQTKITSAFKYINTVISCTIFIVGMVGNATLLRIIYQNKCMRNGPNALIASLALGDLIYVVIDLPINVFKLLAGRWPFDHNDFGVFLCKLFPFLQKSSVGITVLNLCALSVDRYRAVASWSRVQGIGIPLVTAIEIVSIWILSFILAIPEAIGFVMVPFEYRGEQHKTCMLNATSKFMEFYQDVKDWWLFGFYFCMPLVCTAIFYTLMTCEMLNRRNGSLRIALSEHLKQRREVAKTVFCLVVIFALCWFPLHLSRILKKTVYNEMDKNRCELLSFLLLMDYIGINLATMNSCINPIALYFVSKKFKNCFQSCLCCCCYQSKSLMTSVPMNGTSIQWKNHDQNNHNTDRSSHKDSMN | – | 97 % of w.t | 59 % of w.t
8 | wild type P9-ETA (human endothelin receptor type A with N-terminal P9 fusion), P25101 N29D (protein) DNPERYSTDLSNHVDDFTTFRGTELSFLVTTHQPTNLVLPSNGSMHNYCPQQTKITSAFKYINTVISCTIFIVGMVGNATLLRIIYQNKCMRNGPNALIASLALGDLIYVVIDLPINVFKLLAGRWPFDHNDFGVFLCKLFPFLQKSSVGITVLNLCALSVDRYRAVASWSRVQGIGIPLVTAIEIVSIWILSFILAIPEAIGFVMVPFEYRGEQHKTCMLNATSKFMEFYQDVKDWWLFGFYFCMPLVCTAIFYTLMTCEMLNRRNGSLRIALSEHLKQRREVAKTVFCLVVIFALCWFPLHLSRILKKTVYNEMDKNRCELLSFLLLMDYIGINLATMNSCINPIALYFVSKKFKNCFQSCLCCCCYQSKSLMTSVPMNGTSIQWKNHDQNNHNTDRSSHKDSMN | – | 130 % of w.t | 42 % of w.t
9 | wild type P9-ETA (human endothelin receptor type A with N-terminal P9 fusion), P25101 F346C (protein) DNPERYSTNLSNHVDDFTTFRGTELSFLVTTHQPTNLVLPSNGSMHNYCPQQTKITSAFKYINTVISCTIFIVGMVGNATLLRIIYQNKCMRNGPNALIASLALGDLIYVVIDLPINVFKLLAGRWPFDHNDFGVFLCKLFPFLQKSSVGITVLNLCALSVDRYRAVASWSRVQGIGIPLVTAIEIVSIWILSFILAIPEAIGFVMVPFEYRGEQHKTCMLNATSKFMEFYQDVKDWWLFGFYFCMPLVCTAIFYTLMTCEMLNRRNGSLRIALSEHLKQRREVAKTVFCLVVIFALCWFPLHLSRILKKTVYNEMDKNRCELLSCLLLMDYIGINLATMNSCINPIALYFVSKKFKNCFQSCLCCCCYQSKSLMTSVPMNGTSIQWKNHDQNNHNTDRSSHKDSMN | – | 140 % of w.t | 26 % of w.t
10 | wild type P9-ETA (human endothelin receptor type A with N-terminal P9 fusion), P25101 L59P (protein) DNPERYSTNLSNHVDDFTTFRGTELSFLVTTHQPTNLVPPSNGSMHNYCPQQTKITSAFKYINTVISCTIFIVGMVGNATLLRIIYQNKCMRNGPNALIASLALGDLIYVVIDLPINVFKLLAGRWPFDHNDFGVFLCKLFPFLQKSSVGITVLNLCALSVDRYRAVASWSRVQGIGIPLVTAIEIVSIWILSFILAIPEAIGFVMVPFEYRGEQHKTCMLNATSKFMEFYQDVKDWWLFGFYFCMPLVCTAIFYTLMTCEMLNRRNGSLRIALSEHLKQRREVAKTVFCLVVIFALCWFPLHLSRILKKTVYNEMDKNRCELLSFLLLMDYIGINLATMNSCINPIALYFVSKKFKNCFQSCLCCCCYQSKSLMTSVPMNGTSIQWKNHDQNNHNTDRSSHKDSMN | – | 93 % of w.t | 66 % of w.t
11 | wild type P9-ETA (human endothelin receptor type A with N-terminal P9 fusion), P25101 K140I (protein) DNPERYSTNLSNHVDDFTTFRGTELSFLVTTHQPTNLVLPSNGSMHNYCPQQTKITSAFKYINTVISCTIFIVGMVGNATLLRIIYQNKCMRNGPNALIASLALGDLIYVVIDLPINVFILLAGRWPFDHNDFGVFLCKLFPFLQKSSVGITVLNLCALSVDRYRAVASWSRVQGIGIPLVTAIEIVSIWILSFILAIPEAIGFVMVPFEYRGEQHKTCMLNATSKFMEFYQDVKDWWLFGFYFCMPLVCTAIFYTLMTCEMLNRRNGSLRIALSEHLKQRREVAKTVFCLVVIFALCWFPLHLSRILKKTVYNEMDKNRCELLSFLLLMDYIGINLATMNSCINPIALYFVSKKFKNCFQSCLCCCCYQSKSLMTSVPMNGTSIQWKNHDQNNHNTDRSSHKDSMN | – | 110 % of w.t | 18 % of w.t
